Test results as given in article PMC12427801, “Deciphering α-L-Fucosidase Activity Contribution in Human and Mouse: Tissue α-L-Fucosidase FUCA1 Meets Plasma α-L-Fucosidase FUCA2” (Cells, 2025).

B1: H6-tagged human tissue α-L-fucosidase 1 (FUCA1-H6) (enzyme, UniProt P04066 32-466, looked up)
chain: QPPRRYTPDWPSLDSRPLPAWFDEAKFGVFIHWGVFSVPAWGSEWFWWHWQGEGRPQYQRFMRDNYPPGFSYADFGPQFTARFFHPEEWADLFQAAGAKYVVLTTKHHEGFTNWPSPVSWNWNSKDVGPHRDLVGELGTALRKRNIRYGLYHSLLEWFHPLYLLDKKNGFKTQHFVSAKTMPELYDLVNSYKPDLIWSDGEWECPDTYWNSTNFLSWLYNDSPVKDEVVVNDRWGQNCSCHHGGYYNCEDKFKPQSLPDHKWEMCTSIDKFSWGYRRDMALSDVTEESEIISELVQTVSLGGNYLLNIGPTKDGLIVPIFQERLLAVGKWLSINGEAIYASKPWRVQWEKNTTSVWYTSKGSAVYAIFLHWPENGVLNLESPITTSTTKITMLGIQGDLKWSTDPDKGLFISLPQLPPSAVPAEFAWTIKLTGVK
notes: human tissue α-L-fucosidase FUCA1; N-glycosylated; also called H6-tagged FUCA1; H6-tagged human fucosidase; source: HT1080 cells, stably expressing, conditioned medium, purified (Ni-NTA)
B2: untagged human tissue α-L-fucosidase 1 (FUCA1) (enzyme, UniProt P04066 32-466, looked up)
chain: B1 chain
notes: human tissue α-L-fucosidase FUCA1; untagged, secreted into the medium; N-glycosylated; also called untagged FUCA1; hFUCA1; source: CHO-K1 cells, stably expressing, conditioned medium, purified (ammonium sulfate precipitation, strong cation exchange)

Biological target: the molecule itself
Experiment: SEC; Superdex 200 Increase 10/300 GL, McIlvaine buffer pH 4.6, 0.3 mL/min; purified protein; fractions tested by 4-MUF fucosidase activity (FUCA1) or H6-tag western blot (FUCA2-H6)

Protein	binding result
B1	binds
B2	binds
